According to patent US20120045819A1 (published 2012):
Positions of bridges follow the written chain, without caps; N, C: chain ends. No end group written: not given here. *: point of attachment. NHNH2 = NN*

T1: native human factor VIII (nhfVIII) (human, UniProt P00451 20-2351)
T1 chain 1: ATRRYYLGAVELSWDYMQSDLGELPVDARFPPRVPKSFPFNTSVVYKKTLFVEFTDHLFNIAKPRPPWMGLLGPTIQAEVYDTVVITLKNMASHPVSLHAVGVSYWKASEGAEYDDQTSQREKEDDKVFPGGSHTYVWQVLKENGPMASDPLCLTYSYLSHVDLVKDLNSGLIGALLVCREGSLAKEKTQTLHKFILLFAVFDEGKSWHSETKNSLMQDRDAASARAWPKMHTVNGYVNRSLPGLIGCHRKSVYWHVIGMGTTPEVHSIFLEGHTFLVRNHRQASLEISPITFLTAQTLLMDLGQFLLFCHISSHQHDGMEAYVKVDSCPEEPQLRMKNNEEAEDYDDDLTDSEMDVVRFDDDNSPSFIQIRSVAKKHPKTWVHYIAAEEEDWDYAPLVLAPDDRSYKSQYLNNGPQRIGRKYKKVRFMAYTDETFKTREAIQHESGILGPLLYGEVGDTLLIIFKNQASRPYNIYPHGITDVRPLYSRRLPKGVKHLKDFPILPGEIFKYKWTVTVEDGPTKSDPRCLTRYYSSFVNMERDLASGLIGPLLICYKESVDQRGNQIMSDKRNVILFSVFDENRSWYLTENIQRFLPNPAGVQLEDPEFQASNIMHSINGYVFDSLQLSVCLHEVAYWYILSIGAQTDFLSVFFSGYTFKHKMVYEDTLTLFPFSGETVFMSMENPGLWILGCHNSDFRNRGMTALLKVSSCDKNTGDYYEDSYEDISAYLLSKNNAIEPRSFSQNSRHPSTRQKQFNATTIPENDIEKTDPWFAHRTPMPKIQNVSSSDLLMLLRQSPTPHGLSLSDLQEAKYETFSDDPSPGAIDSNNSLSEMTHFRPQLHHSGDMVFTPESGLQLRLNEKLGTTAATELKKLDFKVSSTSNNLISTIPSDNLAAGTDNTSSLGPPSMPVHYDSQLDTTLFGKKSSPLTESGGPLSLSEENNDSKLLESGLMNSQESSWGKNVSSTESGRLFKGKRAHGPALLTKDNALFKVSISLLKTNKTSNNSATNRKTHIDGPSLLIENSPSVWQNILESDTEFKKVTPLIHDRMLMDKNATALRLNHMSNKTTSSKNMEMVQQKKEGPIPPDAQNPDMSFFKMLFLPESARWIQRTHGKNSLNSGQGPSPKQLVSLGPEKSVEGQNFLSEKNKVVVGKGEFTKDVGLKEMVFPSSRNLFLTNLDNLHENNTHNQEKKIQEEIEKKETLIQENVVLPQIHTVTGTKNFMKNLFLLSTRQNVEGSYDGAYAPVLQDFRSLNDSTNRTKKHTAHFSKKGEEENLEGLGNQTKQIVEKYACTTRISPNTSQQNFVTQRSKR
T1 chain 2: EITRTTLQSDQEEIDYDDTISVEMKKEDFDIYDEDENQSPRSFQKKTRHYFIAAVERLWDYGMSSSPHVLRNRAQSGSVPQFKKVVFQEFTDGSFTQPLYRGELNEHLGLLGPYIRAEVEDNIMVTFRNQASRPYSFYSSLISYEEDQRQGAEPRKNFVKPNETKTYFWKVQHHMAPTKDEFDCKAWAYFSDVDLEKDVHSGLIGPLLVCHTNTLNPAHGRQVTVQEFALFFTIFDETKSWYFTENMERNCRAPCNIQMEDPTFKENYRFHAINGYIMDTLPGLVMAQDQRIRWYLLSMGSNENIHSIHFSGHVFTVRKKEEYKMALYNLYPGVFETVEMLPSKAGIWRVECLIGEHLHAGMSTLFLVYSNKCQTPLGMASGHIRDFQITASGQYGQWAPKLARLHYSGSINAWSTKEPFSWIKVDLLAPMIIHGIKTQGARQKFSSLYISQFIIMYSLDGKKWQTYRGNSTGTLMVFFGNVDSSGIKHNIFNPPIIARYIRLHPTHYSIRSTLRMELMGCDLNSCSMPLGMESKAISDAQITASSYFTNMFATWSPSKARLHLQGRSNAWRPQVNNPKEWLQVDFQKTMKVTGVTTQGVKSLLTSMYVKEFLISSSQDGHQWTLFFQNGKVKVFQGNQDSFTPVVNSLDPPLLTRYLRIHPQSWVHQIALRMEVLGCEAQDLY

B1: CS-454 (AEGTGDHLCGAWFRPCDADPGPEGGGS-NHNH2) (peptide)
peptide: AEGTGDHLCGAWFRPCDADPGPEGGGS-NHNH2
modifications: disulfide 9-16
notes: synthetic peptide immobilized on Toyopearl Formyl 650-M resin by hydrazone bond
B2: CS-456 (AEGTGDFGCSWLFPCPFDPGPEGGGS-NHNH2) (peptide)
peptide: AEGTGDFGCSWLFPCPFDPGPEGGGS-NHNH2
modifications: disulfide 9-15
notes: as for B1
B3: CS-458 (AEGTGDFCWVFAFDHCHDPGPEGGGS-NHNH2) (peptide)
peptide: AEGTGDFCWVFAFDHCHDPGPEGGGS-NHNH2
modifications: disulfide 8-16
notes: as for B1

Biological target: T1, native human factor VIII (nhfVIII)
Test: batch binding to peptide beads; fractions by sandwich ELISA; % of total recovered

Binder	% of total recovered in Eluate [%]	% of total recovered in Unbound [%]	% of total recovered in Wash [%]
B1	21	67	12
B2	16	70	14
B3	39	48	13
